Here are results for nine molecules from article PMC4912689, “The Extracellular Surface of the GLP-1 Receptor Is a Molecular Trigger for Biased Agonism” (Cell, 2016).

For the experiment, the target named is exendin-4, P26349. The experiment can be described thus: radioligand inhibition binding (competition with 125I-exendin-4(9-39)). Conditions: chain shown with the change;; read off a plot.

B1: glucagon-like peptide 1 receptor (GLP-1R), wild-type, P43220 Y220A (protein)
chain: RPQGATVSLWETVQKWREYRRQCQRSLTEDPPPATDLFCNRTFDEYACWPDGEPGSFVNVSCPWYLPWASSVPQGHVYRFCTAEGLWLQKDNSSLPWRDLSECEESKRGERSSPEEQLLFLYIIYTVGYALSFSALVIASAILLGFRHLHCTRNYIHLNLFASFILRALSVFIKDAALKWMYSTAAQQHQWDGLLSAQDSLSCRLVFLLMQYCVAANYYWLLVEGVYLYTLLAFSVLSEQWIFRLYVSIGWGVPLLFVVPWGIVKYLYEDEGCWTRNSNMNYWLIIRLPILFAIGVNFLIFVRVICIVVSKLKANLMCKTDIKCRLAKSTLTLIPLLGTHEVIFAFVMDEHARGTLRFIKLFTELSFTSFQGLMVAILYCFVNNEVQLEFRKSWERWRLEHLHIQRDSSMKPLKCPTSSLSSGATAGSSMYTATCQASCS
For the molecule B1, the log10 ratio is 0.1 ΔpKi.

B2: glucagon-like peptide 1 receptor (GLP-1R), wild-type, P43220 S223A (protein)
chain: RPQGATVSLWETVQKWREYRRQCQRSLTEDPPPATDLFCNRTFDEYACWPDGEPGSFVNVSCPWYLPWASSVPQGHVYRFCTAEGLWLQKDNSSLPWRDLSECEESKRGERSSPEEQLLFLYIIYTVGYALSFSALVIASAILLGFRHLHCTRNYIHLNLFASFILRALSVFIKDAALKWMYSTAAQQHQWDGLLSYQDALSCRLVFLLMQYCVAANYYWLLVEGVYLYTLLAFSVLSEQWIFRLYVSIGWGVPLLFVVPWGIVKYLYEDEGCWTRNSNMNYWLIIRLPILFAIGVNFLIFVRVICIVVSKLKANLMCKTDIKCRLAKSTLTLIPLLGTHEVIFAFVMDEHARGTLRFIKLFTELSFTSFQGLMVAILYCFVNNEVQLEFRKSWERWRLEHLHIQRDSSMKPLKCPTSSLSSGATAGSSMYTATCQASCS
B2: the log10 ratio is -0.4 ΔpKi.

B3: glucagon-like peptide 1 receptor (GLP-1R), wild-type, P43220 G295A (protein)
chain: RPQGATVSLWETVQKWREYRRQCQRSLTEDPPPATDLFCNRTFDEYACWPDGEPGSFVNVSCPWYLPWASSVPQGHVYRFCTAEGLWLQKDNSSLPWRDLSECEESKRGERSSPEEQLLFLYIIYTVGYALSFSALVIASAILLGFRHLHCTRNYIHLNLFASFILRALSVFIKDAALKWMYSTAAQQHQWDGLLSYQDSLSCRLVFLLMQYCVAANYYWLLVEGVYLYTLLAFSVLSEQWIFRLYVSIGWGVPLLFVVPWGIVKYLYEDEACWTRNSNMNYWLIIRLPILFAIGVNFLIFVRVICIVVSKLKANLMCKTDIKCRLAKSTLTLIPLLGTHEVIFAFVMDEHARGTLRFIKLFTELSFTSFQGLMVAILYCFVNNEVQLEFRKSWERWRLEHLHIQRDSSMKPLKCPTSSLSSGATAGSSMYTATCQASCS
Take B3: the log10 ratio is -0.1 ΔpKi.

B4: glucagon-like peptide 1 receptor (GLP-1R), wild-type, P43220 L218A (protein)
chain: RPQGATVSLWETVQKWREYRRQCQRSLTEDPPPATDLFCNRTFDEYACWPDGEPGSFVNVSCPWYLPWASSVPQGHVYRFCTAEGLWLQKDNSSLPWRDLSECEESKRGERSSPEEQLLFLYIIYTVGYALSFSALVIASAILLGFRHLHCTRNYIHLNLFASFILRALSVFIKDAALKWMYSTAAQQHQWDGLASYQDSLSCRLVFLLMQYCVAANYYWLLVEGVYLYTLLAFSVLSEQWIFRLYVSIGWGVPLLFVVPWGIVKYLYEDEGCWTRNSNMNYWLIIRLPILFAIGVNFLIFVRVICIVVSKLKANLMCKTDIKCRLAKSTLTLIPLLGTHEVIFAFVMDEHARGTLRFIKLFTELSFTSFQGLMVAILYCFVNNEVQLEFRKSWERWRLEHLHIQRDSSMKPLKCPTSSLSSGATAGSSMYTATCQASCS
In the case of B4, the log10 ratio is -0.95 ΔpKi.

B5: glucagon-like peptide 1 receptor (GLP-1R), wild-type, P43220 S206A (protein)
chain: RPQGATVSLWETVQKWREYRRQCQRSLTEDPPPATDLFCNRTFDEYACWPDGEPGSFVNVSCPWYLPWASSVPQGHVYRFCTAEGLWLQKDNSSLPWRDLSECEESKRGERSSPEEQLLFLYIIYTVGYALSFSALVIASAILLGFRHLHCTRNYIHLNLFASFILRALSVFIKDAALKWMYATAAQQHQWDGLLSYQDSLSCRLVFLLMQYCVAANYYWLLVEGVYLYTLLAFSVLSEQWIFRLYVSIGWGVPLLFVVPWGIVKYLYEDEGCWTRNSNMNYWLIIRLPILFAIGVNFLIFVRVICIVVSKLKANLMCKTDIKCRLAKSTLTLIPLLGTHEVIFAFVMDEHARGTLRFIKLFTELSFTSFQGLMVAILYCFVNNEVQLEFRKSWERWRLEHLHIQRDSSMKPLKCPTSSLSSGATAGSSMYTATCQASCS
Take B5: the log10 ratio was -0.2 ΔpKi.

B6: glucagon-like peptide 1 receptor (GLP-1R), wild-type, P43220 I286A (protein)
chain: RPQGATVSLWETVQKWREYRRQCQRSLTEDPPPATDLFCNRTFDEYACWPDGEPGSFVNVSCPWYLPWASSVPQGHVYRFCTAEGLWLQKDNSSLPWRDLSECEESKRGERSSPEEQLLFLYIIYTVGYALSFSALVIASAILLGFRHLHCTRNYIHLNLFASFILRALSVFIKDAALKWMYSTAAQQHQWDGLLSYQDSLSCRLVFLLMQYCVAANYYWLLVEGVYLYTLLAFSVLSEQWIFRLYVSIGWGVPLLFVVPWGAVKYLYEDEGCWTRNSNMNYWLIIRLPILFAIGVNFLIFVRVICIVVSKLKANLMCKTDIKCRLAKSTLTLIPLLGTHEVIFAFVMDEHARGTLRFIKLFTELSFTSFQGLMVAILYCFVNNEVQLEFRKSWERWRLEHLHIQRDSSMKPLKCPTSSLSSGATAGSSMYTATCQASCS
With B6, the log10 ratio was -0.3 ΔpKi.

B7: glucagon-like peptide 1 receptor (GLP-1R), wild-type, P43220 Q221A (protein)
chain: RPQGATVSLWETVQKWREYRRQCQRSLTEDPPPATDLFCNRTFDEYACWPDGEPGSFVNVSCPWYLPWASSVPQGHVYRFCTAEGLWLQKDNSSLPWRDLSECEESKRGERSSPEEQLLFLYIIYTVGYALSFSALVIASAILLGFRHLHCTRNYIHLNLFASFILRALSVFIKDAALKWMYSTAAQQHQWDGLLSYADSLSCRLVFLLMQYCVAANYYWLLVEGVYLYTLLAFSVLSEQWIFRLYVSIGWGVPLLFVVPWGIVKYLYEDEGCWTRNSNMNYWLIIRLPILFAIGVNFLIFVRVICIVVSKLKANLMCKTDIKCRLAKSTLTLIPLLGTHEVIFAFVMDEHARGTLRFIKLFTELSFTSFQGLMVAILYCFVNNEVQLEFRKSWERWRLEHLHIQRDSSMKPLKCPTSSLSSGATAGSSMYTATCQASCS
For the molecule B7, the log10 ratio was -0.2 ΔpKi.

B8: glucagon-like peptide 1 receptor (GLP-1R), wild-type, P43220 K383A (protein)
chain: RPQGATVSLWETVQKWREYRRQCQRSLTEDPPPATDLFCNRTFDEYACWPDGEPGSFVNVSCPWYLPWASSVPQGHVYRFCTAEGLWLQKDNSSLPWRDLSECEESKRGERSSPEEQLLFLYIIYTVGYALSFSALVIASAILLGFRHLHCTRNYIHLNLFASFILRALSVFIKDAALKWMYSTAAQQHQWDGLLSYQDSLSCRLVFLLMQYCVAANYYWLLVEGVYLYTLLAFSVLSEQWIFRLYVSIGWGVPLLFVVPWGIVKYLYEDEGCWTRNSNMNYWLIIRLPILFAIGVNFLIFVRVICIVVSKLKANLMCKTDIKCRLAKSTLTLIPLLGTHEVIFAFVMDEHARGTLRFIALFTELSFTSFQGLMVAILYCFVNNEVQLEFRKSWERWRLEHLHIQRDSSMKPLKCPTSSLSSGATAGSSMYTATCQASCS
Take B8: the log10 ratio is -1.1 ΔpKi.

B9: glucagon-like peptide 1 receptor (GLP-1R), wild-type, P43220 D372A (protein)
chain: RPQGATVSLWETVQKWREYRRQCQRSLTEDPPPATDLFCNRTFDEYACWPDGEPGSFVNVSCPWYLPWASSVPQGHVYRFCTAEGLWLQKDNSSLPWRDLSECEESKRGERSSPEEQLLFLYIIYTVGYALSFSALVIASAILLGFRHLHCTRNYIHLNLFASFILRALSVFIKDAALKWMYSTAAQQHQWDGLLSYQDSLSCRLVFLLMQYCVAANYYWLLVEGVYLYTLLAFSVLSEQWIFRLYVSIGWGVPLLFVVPWGIVKYLYEDEGCWTRNSNMNYWLIIRLPILFAIGVNFLIFVRVICIVVSKLKANLMCKTDIKCRLAKSTLTLIPLLGTHEVIFAFVMAEHARGTLRFIKLFTELSFTSFQGLMVAILYCFVNNEVQLEFRKSWERWRLEHLHIQRDSSMKPLKCPTSSLSSGATAGSSMYTATCQASCS
Consider B9, for which the log10 ratio was -1.1 ΔpKi.
